{"source": "patent US10357549B2", "about": "“Pigment epithelium-derived factor (PEDF) and peptide derivatives thereof for use in osteoblast differentiation and bone growth” (Yale University, priority 2014, dated 2019)", "key": {"hMSCs [1]": {"system": "hMSCs", "assay": "Adipogenic differentiation of human MSCs", "type": "cell-based", "details": "PEDF started on day 0, adipogenic medium 10 days", "experimental": "(§1) Adipose-derived hMSCs [American Type Culture Collection (ATCC), Manasses, Va., USA; PCS-500-011) were propagated in MSC basal medium supplemented with MSC growth kit (ATCC). Cells were CD29, CD44, CD105, and CD166 positive and negative for CD 31, CD34, and CD45. Interrogation of Wnt-β-catenin signaling was done in ATCC MSC basal medium with 2% FBS. PEDF (500 ng/ml) was added for 6 h. Passage 2 and 3 hMSCs were used for Wnt signaling experiments. For adipocyte conversion, cells (5000 cells/cm^2) were placed in adipocyte differentiation medium (ATCC; PCS-500-050) for 9-10 d. For osteoblast differentiation, cells (5000 cells/cm^2) were differentiated in osteoblast differentiation medium (ATCC; PCS-500-052) for 10-21 d. Alkaline phosphatase kit (Sigma) was used to stain osteoblasts.\nRNA was isolated and processed using the RNAEasy mini kit (Qiagen, Valencia, Calif., USA). Primer probe sets were obtained from a commercial source (Applied Biosystems, Foster City, Calif., USA), and qRT-PCR was performed on a TaqMan ABI 7500 system (Applied Biosystems) as described previously (Schmitz et al., 2011, Am J Pathol, 179: 2990-2999). Target gene expression was normalized against 18S ribosomal RNA using the ΔΔCt method. […]"}, "[2]": {"system": "Wnt cell surface receptor LRP6", "assay": "Canonical Wnt-β-catenin signaling in hMSCs (immunoblot of phospho-LRP6 and active β-catenin)", "type": "cell-based, human", "experimental": "The inhibitor of Wnt production (IWP-2; Tocris Bioscience, Minneapolis, Minn., USA; 2 μM×24-48 h) was used to block production of endogenous Wnt proteins (Chen et al., 2009, Nat Chem Biol, 5: 100-107; Clevers et al., 2012, Cell, 149: 1192-1205). All other chemicals, unless indicated, were purchased from Sigma (St. Louis, Mo., USA).\nas §1\nImmunoblotting was performed as described previously (Schmitz et al., 2011, Am J Pathol, 179: 2990-2999). Proteins were separated by 10% SDS-PAGE on gradient gels (Bio-Rad, Hercules, Calif., USA). Antibodies against nonphosphorylated β-catenin, total β-catenin, phospho-LRP6 (serine 1490), total LRP6 (Cell Signaling Technologies, Danvers, Mass., USA), and alkaline phosphatase (Developmental Studies Hybridoma Bank, University of Iowa, Iowa City, Iowa, USA). To assess signaling through the Wnt coreceptor LRP6, 3T3 adipocyte precursors with vector and LRP6-KO shRNA were used (Liu et al., 2012, J Biol Chem, 287: 7213-7223). On confluence, cells were serum starved for 48 h, and then changed to DMEM with 10% FCS (d 0). PEDF (10 nM) was added on d 0, and cells were harvested after 48 h. Knockdown was confirmed by immunoblotting for total LRP6. β-actin (Sigma) was used as a loading control."}, "[3]": {"system": "MSCs derived from stromovascular cells (SVCs)", "assay": "Adipogenic differentiation of murine MSCs derived from stromovascular cells (Oil Red O, qRT-PCR)", "type": "cell-based, mouse", "experimental": "(§2) Subcutaneous fat pads were dissected from WT and PEDF-KO mice and digested in HBSS medium containing 3% BSA (American Bioanalytical, Natick, Mass., USA), 0.8 mg/ml of type 2 collagenase (Worthington Biochemical Corp., Lakewood, N.J., USA), 1.2 mM CaCl2, and 1.0 mM MgCl2 for 1 h and 15 min in a shaking 37° C. water bath. Stromovascular fractions (SVFs) were obtained after centrifugation at 300 g for 5 min. Cells were initially plated in proliferation medium (DMEM plus 10% FBS and bFGF; 1 ng/ml) until 70-80% confluence. Adipogenic differentiation was initiated with differentiation medium (5 μg/ml insulin, 10 nM dexamethasone, 0.5 mM IBMX, and 1 μM rosiglitazone) and added on d 0 for 72 h. Afterward, cells were maintained in DMEM with 10% FBS and 5 μg/ml insulin for an additional 5 d until full differentiation as confirmed by light microscopy and Oil Red O staining. Osteoblast differentiation cocktail (10 nM dexamethasone, 50 μg/ml ascorbic acid, and 10 mM β-glycerophosphate) was used for 21 d.\n(§3) RNA was isolated and processed using the RNAEasy mini kit (Qiagen, Valencia, Calif., USA). Primer probe sets were obtained from a commercial source (Applied Biosystems, Foster City, Calif., USA), and qRT-PCR was performed on a TaqMan ABI 7500 system (Applied Biosystems) as described previously (Schmitz et al., 2011, Am J Pathol, 179: 2990-2999). Target gene expression was normalized against 18S ribosomal RNA using the ΔΔCt method. On sorted adipose populations, qRT-PCR was performed on a Roche Lightcycler 480 (Roche, Basel, Switzerland) using a SYBR FAST qPCR kit (Kapa Biosystems, Woburn, Mass., USA; KK4611), and target gene expression was normalized to TBK1.\n(§4) For Oil Red O staining, cells were washed in PBS and fixed in 10% formalin for 20 min. Cells were then stained with 0.5% Oil Red O for 15 min. For Alizarin Red staining, cells were washed in PBS and fixed in 10% formalin for 20 min. After being washed twice in ddH2O, cells were stained in 2% Alizarin Red S (pH 4.1). Cells were washed ≥3 times in ddH2O, and images were acquired with a Zeiss Axiophot microscope (Carl Zeiss, Oberkochen, Germany). Representative images are shown at ×40 view."}, "hMSCs [4]": {"system": "hMSCs", "assay": "Osteoblast differentiation of hMSCs (alkaline phosphatase)", "type": "cell-based, human", "details": "PEDF added to hMSCs", "experimental": "as §1\nImmunoblotting was performed as described previously (Schmitz et al., 2011, Am J Pathol, 179: 2990-2999). Proteins were separated by 10% SDS-PAGE on gradient gels (Bio-Rad, Hercules, Calif., USA). Antibodies against nonphosphorylated β-catenin, total β-catenin, phospho-LRP6 (serine 1490), total LRP6 (Cell Signaling Technologies, Danvers, Mass., USA), and alkaline phosphatase (Developmental Studies Hybridoma Bank, University of Iowa, Iowa City, Iowa, USA). […]"}, "SVCs from PEDF KO mice": {"system": "SVCs from PEDF KO mice", "assay": "Osteoblast differentiation and mineralization of PEDF KO SVCs (Alizarin Red, qRT-PCR)", "type": "cell-based, mouse", "experimental": "as §2, §3, §4"}, "femurs in PEDF KO mice": {"system": "femurs in PEDF KO mice", "assay": "Biomechanical testing of femurs of vehicle and PEDF treated PEDF KO mice", "type": "in vivo, mouse", "details": "versus vehicle", "from_the_text": "Further experiments were done to compare the biomechanical properties of PEDF-treated and vehicle-treated bones. […] Femur length was not different between vehicle or PEDF-treated groups. PEDF increased bone stiffness, the slope of the load applied to the bone vs displacement of bone. Maximum load was not different in PEDF-treated mice. The deformation of bone after the yield point, a measure of bone ductility increased after PEDF treatment. Displacement of femurs at maximum load and at fracture (Fx) point increased after PEDF treatment, indicating bones that are less brittle with force applied."}, "[5]": {"details": "PEDF 500 ng/ml added to IWP-2-treated hMSCs"}, "[6]": {"details": "PEDF started on day 3, both WT and KO SVCs"}, "[7]": {"details": "osteoblast differentiation, KO SVCs, day 21"}}, "data": [{"molecule": "Pigment epithelium-derived factor (protein, Full-length recombinant human PEDF generated in HEK cells; 50-kDa secreted protein of the SERPIN superfamily) QNPASPPEEGSPDPDSTGALVEEEDPFFKVPVNKLAAAVSNFGYDLYRVRSSTSPTTNVLLSPLSVATALSALSLGAEQRTESIIHRALYYDLISSPDIHGTYKELLDTVTAPQKNLKSASRIVFEKKLRIKSSFVAPLEKSYGTRPRVLTGNPRLDLQEINNWVQAQMKGKLARSTKEIPDEISILLLGVAHFKGQWVTKFDSRKTSLEDFYLDEERTVRVPMMSDPKAVLRYGLDSDLSCKIAQLPLTGSMSIIFFLPLKVTQNLTLIEESLTSEFIHDIDRELKTVQAVLTVPKLKLSYEGEVTKSLQEMKLQSLFDSPDFSKITGKPIKLTQVEHRAGFEWNEDGAGTTPSPGLQPAHLTFPLDYHLNQPFIFVLRDTDTGALLFIGKILDPRGP", "values": [{"measurement": "adipogenesis of hMSCs", "setting": "hMSCs [1]", "result": "inhibits adipogenesis"}, {"measurement": "proadipogenic transcription factors in hMSCs", "setting": "hMSCs [1]", "result": "inhibited proadipogenic transcription factors"}, {"measurement": "LRP6 phosphorylation in IWP-2-treated cells", "setting": "[2]; [5]", "result": "led to LRP6 phosphorylation"}, {"measurement": "active β-catenin in IWP-2-treated cells", "setting": "[2]; [5]", "result": "enhanced levels of active β-catenin"}, {"measurement": "LRP6 phosphorylation", "setting": "[2]; hMSCs, Wnt3a 50 ng/ml, PEDF 500 ng/ml", "result": "increased LRP6 phosphorylation"}, {"measurement": "active β-catenin levels", "setting": "[2]; medium conditions where endogenous Wnt proteins would be present", "result": "only minimal effects"}, {"measurement": "PPARγ suppression, day 1 versus day 3 start", "setting": "[3]; PEDF 500 ng/ml", "result": "greater when PEDF was started on day 1 compared with day 3"}, {"measurement": "adipogenesis (Oil Red O staining)", "setting": "[3]; PEDF 500 ng/ml added on day 1 or day 3, assessed day 8", "result": "significantly inhibited adipogenesis"}, {"measurement": "expression of PPARγ, PGC1α, CEBPα and adipocyte marker ADIPOQ", "setting": "[3]; PEDF 500 ng/ml started on day 1 or day 3", "result": "suppression"}, {"measurement": "inhibition of PGC1α expression", "setting": "[3]; [6]", "result": "~50", "unit": "%"}, {"measurement": "inhibition of PPARγ expression", "setting": "[3]; [6]", "result": "~50", "unit": "%"}, {"measurement": "suppression of PPARγ, adiponectin, and other adipocyte markers", "setting": "[3]; compared with control-treated cells, P<0.001", "result": "~90", "unit": "%"}, {"measurement": "alkaline phosphatase by staining and protein levels", "setting": "hMSCs [4]", "result": "increased alkaline phosphatase"}, {"measurement": "Alizarin Red staining (mineralization)", "setting": "SVCs from PEDF KO mice; PEDF treatment for 21 days, KO SVCs, versus vehicle-treated cells", "result": "increased Alizarin Red staining"}, {"measurement": "Collagen Ia expression", "setting": "SVCs from PEDF KO mice; day 21 of differentiation", "result": "not different"}, {"measurement": "Runx2 expression", "setting": "SVCs from PEDF KO mice; day 21 of differentiation", "result": "did not affect"}, {"measurement": "Sp7 expression", "setting": "SVCs from PEDF KO mice; day 21 of differentiation", "result": "did not affect"}, {"measurement": "reduction of PPARγ expression", "setting": "SVCs from PEDF KO mice; [7]", "result": "~80", "unit": "%"}, {"measurement": "transforming growth factor β (TGF-β) expression", "setting": "SVCs from PEDF KO mice; [7]", "result": "reduced the expression"}, {"measurement": "bone stiffness (slope of load vs displacement)", "setting": "femurs in PEDF KO mice", "result": "increased"}, {"measurement": "deformation of bone after the yield point (bone ductility)", "setting": "femurs in PEDF KO mice", "result": "increased"}, {"measurement": "displacement of femurs at fracture (Fx) point", "setting": "femurs in PEDF KO mice", "result": "increased"}, {"measurement": "displacement of femurs at maximum load", "setting": "femurs in PEDF KO mice", "result": "increased"}, {"measurement": "femur length", "setting": "femurs in PEDF KO mice", "result": "not different"}, {"measurement": "flexibility of femurs", "setting": "femurs in PEDF KO mice", "result": "enhances the flexibility"}, {"measurement": "maximum load", "setting": "femurs in PEDF KO mice", "result": "not different"}]}]}
